The values below come from article PMC4773887.

Assay in all cases: EMSA
What all share (settings): EMSA: 10 fmol DNA, 300 uM ddGTP, 3 mM dCTP; 6% native PAGE in 0.5x TBE, 35 min, 180 V; binding buffer, salt, pH and temperature not stated (ref 59)

Data set [1] has as its system HsPOLγA D274A (exo-);HsPOLγB WT (Homo sapiens;Homo sapiens).
The subject of data set [2] is HsPOLγA H1134A (pol-);HsPOLγB WT (Homo sapiens;Homo sapiens).
Data set [3] deals with HsPOLγA Q1102A (pol-);HsPOLγB WT (Homo sapiens;Homo sapiens).
In data set [4] the test system is HsPOLγA WT;HsPOLγB WT (Homo sapiens;Homo sapiens).

pKd: −log10 of the molar value.

On to EMSA primer-template, for which the pKd was 8.55 in data set [1], 8.46 in data set [2], 8.42 in data set [3] and 8.26 in data set [4].
